Data taken from patent US20240167098, “METHODS FOR PREDICTING TREATMENT OUTCOME TO CHECKPOINT INHIBITORS IN CANCER” (The Brigham and Women`s Hospital, Inc., published 2024).

Experiments:
[1] = target: T1, HNRNPH1 (hnRNP H1) isoform A (UniProt P31943 P31943:1-449); assay: MST; value only in figure; same buffer as INCR1; conditions: label: 3' FAM (MST); 32P (EMSA)
T1 sequence: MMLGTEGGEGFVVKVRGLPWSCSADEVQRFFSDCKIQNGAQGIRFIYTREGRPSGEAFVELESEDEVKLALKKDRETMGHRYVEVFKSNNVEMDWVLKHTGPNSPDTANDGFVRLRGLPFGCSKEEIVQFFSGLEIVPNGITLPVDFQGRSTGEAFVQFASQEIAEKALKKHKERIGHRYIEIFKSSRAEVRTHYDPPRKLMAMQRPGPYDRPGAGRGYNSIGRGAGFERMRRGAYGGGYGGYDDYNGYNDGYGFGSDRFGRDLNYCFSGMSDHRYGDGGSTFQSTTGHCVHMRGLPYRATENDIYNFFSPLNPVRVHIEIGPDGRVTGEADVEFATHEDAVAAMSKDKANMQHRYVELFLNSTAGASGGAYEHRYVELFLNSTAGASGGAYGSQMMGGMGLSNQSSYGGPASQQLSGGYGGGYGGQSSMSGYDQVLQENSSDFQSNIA
Description: (§1) Microscale thermophoresis. MicroScale Thermophoresis experiments were performed according to the NanoTemper technologies protocol in a Monolith NT.115Pico (red/blue) instrument (NanoTemper Technologies). Serial dilutions of HNRNPH1 were done using a buffer containing 50 mM Tris [pH 8.0], 300 mM KCl, 0.02% NP-40, 10% Glycerol, and 0.5 mg/ml Heparin. RNA oligos were labeled with a FAM moiety at their […] (IDT). The RNA concentration was kept constant at 20 nM throughout the experiments. The RNA-protein mixture was incubated at room temperature for 15 mins before running into the MST instrument. The experiments were performed using 40% and 60% MST power and between 20%-80% LED power at 22_C. The MST traces were recorded using the standard parameters: 5 s MST power off, 30 s medium MST power on and 5 s MST power off. The reported measurement values are the combination of two effects: the fast, local environment dependent responses of the fluorophore to the temperature jump and the slower diffusive thermophoresis fluorescence changes. The data presented here are the average of 3 independent experiments. Average normalized fluorescence (%) was plotted against HNRNPH1 concentration to determine the binding constant (Kd). Ligand depletion model with one binding site was used (Using GraphPad Prism 8) to fit the binding which follows the following model: Y=Bmax*X/(Kd+X).

[2] = target: T1, HNRNPH1 (hnRNP H1) isoform A; assay: MST; value only in figure; 20 nM RNA, 50 mM Tris pH 8.0, 300 mM KCl, 0.02% NP-40, 10% glycerol, 0.5 mg/ml heparin, 22 C; conditions: label: 3' FAM (MST)
Description: as §1

AUACGUGGGAGUGGGGUGCUGAGCUGGGCAGGGUGAGAGUAU (ssRNA) [JAK2 RNA oligo]: binds [1].

UAAGGGGUGAGGGGCAGGAGAAUGGGUAUGGAUGGAGGUAGA (ssRNA) [PD-L1 RNA oligo]: binds [1].

GGGGCGGGCCGGUUGCCGGGGGGAGCUGGAGUCACGUGACGGC (ssRNA) [INCR1 RNA oligo]: binds [2].
